Test [1] has as its target T1, human C4b (human) (UniProt P0C0L4).
T1 sequence: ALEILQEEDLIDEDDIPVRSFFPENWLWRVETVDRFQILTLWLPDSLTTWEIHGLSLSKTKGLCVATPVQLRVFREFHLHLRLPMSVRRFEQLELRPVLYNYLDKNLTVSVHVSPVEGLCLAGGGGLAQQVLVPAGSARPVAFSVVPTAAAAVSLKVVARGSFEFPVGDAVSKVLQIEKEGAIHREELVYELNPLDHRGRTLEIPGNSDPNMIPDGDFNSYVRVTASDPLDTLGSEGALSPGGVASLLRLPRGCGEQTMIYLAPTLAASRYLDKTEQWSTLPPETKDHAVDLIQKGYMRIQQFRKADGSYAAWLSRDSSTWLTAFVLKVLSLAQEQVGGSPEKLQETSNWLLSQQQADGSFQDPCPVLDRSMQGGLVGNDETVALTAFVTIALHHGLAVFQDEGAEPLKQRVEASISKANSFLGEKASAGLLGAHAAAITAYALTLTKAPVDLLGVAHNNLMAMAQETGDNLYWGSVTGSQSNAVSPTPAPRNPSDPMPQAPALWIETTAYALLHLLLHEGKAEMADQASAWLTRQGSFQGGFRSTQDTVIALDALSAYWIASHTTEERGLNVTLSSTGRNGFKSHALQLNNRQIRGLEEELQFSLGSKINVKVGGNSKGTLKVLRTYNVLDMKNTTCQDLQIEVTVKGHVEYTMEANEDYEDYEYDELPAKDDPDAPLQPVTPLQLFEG

The target in test [2] is T2, human C4b (human) (UniProt P0C0L5).
T2 sequence: T1 sequence with A151T, D317G, P364L, C365S, L368I, D369H, N420S, V451A, L454R, S530A

Test [3] addresses soluble human C3b (human) (UniProt P01024).

Residue numbers refer to the chain shown, from its start.

Take “CFI-HSA variant E457G; E461Q-R462K; F464Y (enzyme)”: the C4c EC50 (nM) in test [1] is 65.2 nM. The substance also yielded a C4b Screen Ref Fold (fold vs CFI-HSA wild type) in test [2] of 5.5. For the same substance, the iC3b Screen Ref Fold (fold vs CFI-HSA wild type) in test [3] was 0.69.

In test [1], CFI-HSA variant E457G; K534Q (enzyme) showed a C4c EC50 of 55.2 nM. This substance returned a C4b Screen Ref Fold (fold of CFI-HSA wild type) in test [2] of 5.24. The iC3b Screen Ref Fold (fold of CFI-HSA wild type) in test [3] came to 1.15. “CFI-HSA variant E457G; N531G; E416A (enzyme)”: in test [1], the C4c EC50 (nM) amounted to 5.4 nM. For the same substance, in test [2], the C4b Screen Ref Fold (fold of CFI-HSA wild type) stood at 5.02. The iC3b Screen Ref Fold (fold of CFI-HSA wild type) in test [3] is 2.66.

As for “CFI-HSA variant E457G; N531G; E461Q; R462K; F464Y (enzyme)”, the C4c EC50 (nM) in test [1] amounted to 37.9 nM. Moreover, in test [2], the C4b Screen Ref Fold (fold vs CFI-HSA wild type) is 5.97. In test [3], the iC3b Screen Ref Fold (fold vs CFI-HSA wild type) was 0.83. In the case of “CFI-HSA variant E457G; N531G; P535G (enzyme)”, the C4c EC50 in test [1] was 54 nM. Also, in test [2], the C4b Screen Ref Fold (fold of CFI-HSA wild type) was 5.48. For the same substance, the iC3b Screen Ref Fold (fold of CFI-HSA wild type) in test [3] came to 1.27. The matching figures for “CFI-HSA variant E457G; N531G; P535G; D425K (enzyme)”: 39.4 nM, 5.2 and 1.3. The corresponding values for “CFI-HSA variant E457G; N531G; P535G; N422K (enzyme)” are 51.6 nM, 4.46 and 1.87. Substance “CFI-HSA variant E457G; P535G; K534Q (enzyme)” had a C4c EC50 in test [1] of 154 nM. For the same substance, in test [2], the C4b Screen Ref Fold (fold of CFI-HSA wild type) came to 3.85. Besides, the iC3b Screen Ref Fold (fold of CFI-HSA wild type) in test [3] stood at 0.82.

Regarding “CFI-HSA variant E457G; P535G; P558S (enzyme)”, in test [1], the C4c EC50 amounted to 186 nM. The C4b Screen Ref Fold (fold of CFI-HSA wild type) in test [2] was 3.18. Moreover, the iC3b Screen Ref Fold (fold of CFI-HSA wild type) in test [3] turned out to be 0.81. On to CFI-HSA variant E457G; P558S (enzyme), for which the C4c EC50 in test [1] came out at 65.9 nM. The C4b Screen Ref Fold (fold of CFI-HSA wild type) in test [2] was determined as 4.98. Also, the iC3b Screen Ref Fold (fold of CFI-HSA wild type) in test [3] came to 1.04. For CFI-HSA variant E487A (enzyme), the C4c EC50 in test [1] was determined as 104 nM. This substance yielded a C4b Screen Ref Fold (fold of CFI-HSA wild type) in test [2] of 1.47. Moreover, the iC3b Screen Ref Fold (fold of CFI-HSA wild type) in test [3] was determined as 1.38. As for CFI-HSA variant E487K (enzyme), the C4c EC50 in test [1] was found to be 119 nM. In test [2], the C4b Screen Ref Fold (fold of CFI-HSA wild type) was 1.11. Besides, the iC3b Screen Ref Fold (fold of CFI-HSA wild type) in test [3] came out at 1.35. For CFI-HSA variant Y408L; E530Y (enzyme), the C4c EC50 (nM) in test [1] is over 1000 nM. As for CFI-HSA variant Y408L; N531G (enzyme), in test [1], the C4c EC50 came to 71.9 nM. Take “CFI-HSA variant Y408L; N531G; D425R; E530Y (enzyme)”: in test [1], the C4c EC50 (nM) was 41.2 nM.

In turn, “CFI-HSA variant Y408L; N531G; E457G; F464Y (enzyme)” had a C4c EC50 in test [1] of 23.2 nM. Same read-out and setting: next, “CFI-HSA variant Y408L; N531G; E461Q; F464Y (enzyme)”: 46.7 nM; “CFI-HSA variant Y408L; N531G; E461Q; R462K (enzyme)”: 24.5 nM.

Turning to “CFI-HSA variant Y408L; N531G; E530Y (enzyme)”, in test [1], the C4c EC50 (nM) was 54 nM. “CFI-HSA variant Y408L; N531G; F464Y (enzyme)” registered a C4c EC50 in test [1] of 66.5 nM. For the substance “CFI-HSA variant Y408L; N531G; P535G; WT; GGSSGG (SEQ ID NO: 6); CR1(ccp15-17) (enzyme)”, in test [1], the C4c EC50 worked out at 62.4 nM.

In test [1], “CFI-HSA variant Y408L; N531G; R462K (enzyme)” yielded a C4c EC50 of 126 nM.

In turn, “CFI-HSA variant Y408L; N531G; R462K; F464Y (enzyme)” registered a C4c EC50 in test [1] of 98.2 nM. The substance “CFI-HSA variant Y408L; N531G; WT; GGSSGG (SEQ ID NO: 6); CR1(ccp15-17) (enzyme)” returned a C4c EC50 in test [1] of 40.9 nM. CFI-HSA variant Y553K (enzyme) had a C4c EC50 (nM) in test [1] of 198 nM.

For the origin of these results see US20230038638A1, “COMPLEMENT FACTOR I-RELATED COMPOSITIONS AND METHODS” (published 2023).
